Measured values taken from IntAct's records for PubMed 17693255.

B1: Hamartin (Homo sapiens), Q92574 (parent)
chain: MAQQANVGELLAMLDSPMLGVRDDVTAVFKENLNSDRGPMLVNTLVDYYLETSSQPALHILTTLQEPHDKHLLDRINEYVGKAATRLSILSLLGHVIRLQPSWKHKLSQAPLLPSLLKCLKMDTDVVVLTTGVLVLITMLPMIPQSGKQHLLDFFDIFGRLSSWCLKKPGHVAEVYLVHLHASVYALFHRLYGMYPCNFVSFLRSHYSMKENLETFEEVVKPMMEHVRIHPELVTGSKDHELDPRRWKRLETHDVVIECAKISLDPTEASYEDGYSVSHQISARFPHRSADVTTSPYADTQNSYGCATSTPYSTSRLMLLNMPGQLPQTLSSPSTRLITEPPQATLWSPSMVCGMTTPPTSPGNVPPDLSHPYSKVFGTTAGGKGTPLGTPATSPPPAPLCHSDDYVHISLPQATVTPPRKEERMDSARPCLHRQHHLLNDRGSEEPPGSKGSVTLSDLPGFLGDLASEEDSIEKDKEEAAISRELSEITTAEAEPVVPRGGFDSPFYRDSLPGSQRKTHSAASSSQGASVNPEPLHSSLDKLGPDTPKQAFTPIDLPCGSADESPAGDRECQTSLETSIFTPSPCKIPPPTRVGFGSGQPPPYDHLFEVALPKTAHHFVIRKTEELLKKAKGNTEEDGVPSTSPMEVLDRLIQQGADAHSKELNKLPLPSKSVDWTHFGGSPPSDEIRTLRDQLLLLHNQLLYERFKRQQHALRNRRLLRKVIKAAALEEHNAAMKDQLKLQEKDIQMWKVSLQKEQARYNQLQEQRDTMVTKLHSQIRQLQHDREEFYNQSQELQTKLEDCRNMIAELRIELKKANNKVCHTELLLSQVSQKLSNSESVQQQMEFLNRQLLVLGEVNELYLEQLQNKHSDTTKEVEMMKAAYRKELEKNRSHVLQQTQRLDTSQKRILELESHLAKKDHLLLEQKKYLEDVKLQARGQLQAAESRYEAQKRITQVFELEILDLYGRLEKDGLLKKLEEEKAEAAEAAEERLDCCNDGCSDSMVGHNEEASGHNGETKTPRPSSARGSSGSRGGGGSSSSSSELSTPEKPPHQRAGPFSSRWETTMGEASASIPTTVGSLPSSKSFLGMKARELFRNKSESQCDEDGMTSSLSESLKTELGKDLGVEAKIPLNLDGPHPSPPTPDSVGQLHIMDYNETHHEHS

Variants of: B1
Conditions: with tsc2_human TSC2, P49815
Chain of tsc2_human TSC2, P49815 (P49815 whole entry): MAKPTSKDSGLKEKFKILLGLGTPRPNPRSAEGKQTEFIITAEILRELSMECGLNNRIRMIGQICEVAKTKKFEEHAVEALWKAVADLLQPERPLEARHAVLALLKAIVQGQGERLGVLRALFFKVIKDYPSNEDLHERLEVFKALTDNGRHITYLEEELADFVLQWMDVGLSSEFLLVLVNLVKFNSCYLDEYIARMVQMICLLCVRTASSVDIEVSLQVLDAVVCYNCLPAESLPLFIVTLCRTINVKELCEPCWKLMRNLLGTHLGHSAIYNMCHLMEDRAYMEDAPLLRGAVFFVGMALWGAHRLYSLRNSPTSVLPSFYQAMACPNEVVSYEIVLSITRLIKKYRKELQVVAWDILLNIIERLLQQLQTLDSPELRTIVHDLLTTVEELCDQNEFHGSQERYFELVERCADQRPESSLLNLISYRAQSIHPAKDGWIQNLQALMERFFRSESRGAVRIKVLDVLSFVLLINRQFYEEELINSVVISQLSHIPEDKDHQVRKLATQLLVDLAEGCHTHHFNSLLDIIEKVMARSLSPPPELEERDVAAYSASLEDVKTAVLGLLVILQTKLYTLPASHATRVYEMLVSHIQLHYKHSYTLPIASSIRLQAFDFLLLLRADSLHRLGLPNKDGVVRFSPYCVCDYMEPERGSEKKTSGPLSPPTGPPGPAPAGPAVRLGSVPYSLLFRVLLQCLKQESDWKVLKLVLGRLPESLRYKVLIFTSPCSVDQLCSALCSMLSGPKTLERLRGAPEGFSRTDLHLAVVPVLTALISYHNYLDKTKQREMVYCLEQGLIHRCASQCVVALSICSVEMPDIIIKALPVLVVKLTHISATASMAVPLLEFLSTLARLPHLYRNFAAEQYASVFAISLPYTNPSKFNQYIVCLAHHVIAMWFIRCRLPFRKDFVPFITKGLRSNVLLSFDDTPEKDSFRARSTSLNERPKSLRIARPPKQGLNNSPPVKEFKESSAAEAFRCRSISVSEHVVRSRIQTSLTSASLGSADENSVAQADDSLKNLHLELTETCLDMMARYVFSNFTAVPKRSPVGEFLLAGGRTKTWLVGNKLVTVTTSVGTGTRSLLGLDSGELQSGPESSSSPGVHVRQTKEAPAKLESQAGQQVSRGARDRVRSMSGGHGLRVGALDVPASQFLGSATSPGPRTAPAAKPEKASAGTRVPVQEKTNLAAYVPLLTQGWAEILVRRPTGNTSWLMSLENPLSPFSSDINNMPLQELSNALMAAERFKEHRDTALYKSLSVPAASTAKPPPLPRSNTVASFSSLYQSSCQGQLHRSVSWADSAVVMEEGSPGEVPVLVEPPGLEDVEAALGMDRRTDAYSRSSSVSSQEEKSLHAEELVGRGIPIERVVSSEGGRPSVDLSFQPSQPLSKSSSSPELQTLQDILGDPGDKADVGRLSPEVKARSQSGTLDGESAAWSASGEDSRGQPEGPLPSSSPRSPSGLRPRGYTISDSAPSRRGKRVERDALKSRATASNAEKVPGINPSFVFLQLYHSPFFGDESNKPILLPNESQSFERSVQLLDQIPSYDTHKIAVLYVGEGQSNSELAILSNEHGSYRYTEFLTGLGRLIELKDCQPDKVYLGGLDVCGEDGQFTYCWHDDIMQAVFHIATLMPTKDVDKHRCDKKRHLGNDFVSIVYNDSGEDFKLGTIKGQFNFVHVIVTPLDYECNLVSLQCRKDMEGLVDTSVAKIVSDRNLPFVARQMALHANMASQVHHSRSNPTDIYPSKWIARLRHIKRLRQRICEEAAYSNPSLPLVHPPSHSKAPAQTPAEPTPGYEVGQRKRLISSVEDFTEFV

effect of a mutation on the interaction | Variant
decreasing interaction | S487D;S511D
